{"source": "paper PMC4726530", "about": "(PLoS ONE, 2016)", "molecules": {"B1": {"name": "GAOR3 (Sulfurisphaera tokodaii str. 7) (protein)", "chain": "MYVGQRVKRKEDLKLITGSGRYIDDIEIPGNLYIAILRSSVAHAKLKKIEYSDVLKLNGVYGVITGLTIPVENRPRNFPMAKDEILYMGQPIAAVLAKDRYVAVDALDYISYDYEELPAVIDPEEAINSKVKAIEDYDNIIYKKTYSGGNAEEAYEKSDVKIEEKLVISRVYAAPMEPRGLVVDYQQDRLTVYASTQSPHYMRSFLLSAFGDKVNDIRVIQADVGGAFGSKLFPYPEDYIAVFAALTYKRPVKLVNTRRDDLFSTYHSRGQIHKVKVGASKDGKINSILDDLIIDLGAAWHGTYLADIPATLITGPYDIKNAKVNVFGVLTNKTPLDQYRGAGRPEAAFVYERIMDIVADELKIDPIELRRKNIIQSTPYKNVMGLTYDSGDYNALLTKAESYYREMEQRAEELRRQGKRVGVGLSFYIEQNNFGPWESASVRLLSNGKVEVVIGAAPHGQGTATGIAQIVADELEISIDDVEVTWGDTDKISNAFGTYGSRSLTLAGNAALLASRKLKENIMKLAAQFMKSDVEELQYKDGKVFNPKTGKSMTLKEIAIKVTSNLGGVWRYKAEPTLEATASFGFDNYTFPYGSHIAMVEVTDEGVVKVLDYVAIDDIGVVVNPMLAEGQVHGGVIQGFGETLLEQIVYDNNGNLLTSTFADYLIPSAVESFNMKWFYTEIGKSNAPLPAKGIGEGATIGAPPALIRAIERAIGKRLTALPVKMEELSK", "notes": "LMS hetero-trimer; L 730 aa, M 278 aa, S 168 aa; 85 kDa by gel filtration; M-subunit); Putative oxidoreductase iron-sulfur subunit (S-subunit)"}, "B2": {"name": "STK23390, molybdo-pyranopterin L-subunit of glyceraldehyde oxidoreductase GAOR2 (natural protein, UniProt Q96Y29 1-706, looked up)", "chain": "MYIGKPIKRIEDLRLITGKGAYVDDIELPGTLFVAFVRSKYPHARIKVKKEEGIFTGEDINPGKDFPIATKETTYVGQPIAIVIAKDRYEAYDLIESVEVEYEELDYVLDPEKALEDKVKVHSGLSSNIYYHERWKGGDVEKAFKEADLTISDTLINQRVIASPLETRGALAYFDGNKLTFYSSTQSAHYLRRNLVDFLGFENIRVIQPDVGGAFGSKIIAHPEEYALAKLALMLRKPLKWVPTRTEEFISAGHGRDKKLKFEVAVKKDGTILGIRGTLIANLGAPYPDANDDESGNVKSTVRMLPGIYKIIGADIDAYAVHTNITPTQSYRGAGRPEGIYFIERIVNIVADELGIDQYEIRLKNAIDTLPYTNIFGVTYDSGNVKKLLEIGKKYYDELKKEDGCVGVSSYIEITAFGPWEVARISVKYDGKITLVTGTGPHGQGDATAFAQIAADVLELPIEKIEVRWGDTEIIEDGIGTWGSRTVTIGGSAVLLASQKLKDKLIEIGAKILNADKEEVEYKEGNVTHKKNGNKVTFNEIVKNAFKMGESLDTTAIYNVKQPPTTPYGVHLALVKVDGTGKVFVKKYVAVDDVGTVINPLLAEGQAIGGIVQGMAQALLEGAFFDENGQLLTTNFQDYPIPTAVEIPEKIDWYYEILGKSPHPTGSKGIGEAGAIAATPTIINAVEQCIKKRITKMPVKFEELVS", "notes": "STK23390, L-subunit of GAOR2, Sulfolobus tokodaii; Carries Mo-PCD; Cys405 and Cys689 form a disulfide bridge; also called L-subunit of GAOR2; ST23390"}}, "key": {"[1]": {"molecular_target": "LMS hetero-trimer unit of GAOR1 (STK17810/STK17830/STK17820) (Sulfolobus tokodaii (endogenous, purified from the cells))", "test": "SEC; Superdex 200 10/30 gel filtration in buffer II (20 mM Tris-HCl pH 7.5, 0.25 M NaCl), molecular weights estimated against protein standards; oligomer of LMS hetero-trimer units"}, "[2]": {"molecular_target": "LMS hetero-trimer unit of GAOR2 (STK23390/STK05620/STK05610) (Sulfolobus tokodaii (endogenous, purified from the cells))", "test": "SEC; Superdex 200 10/30 gel filtration in buffer II (20 mM Tris-HCl pH 7.5, 0.25 M NaCl), molecular weights estimated against protein standards; oligomer of LMS hetero-trimer units"}, "[3]": {"molecular_target": "LMS hetero-trimer unit of GAOR2 (STK23390/STK05620/STK05610) (Sulfolobus tokodaii (endogenous, purified from the cells))", "test": "crystal structure; GAOR2 purified from S. tokodaii, 8 mg/mL, sitting drop at 25°C, 0.1 M Na-acetate pH 4.5, 0.2 M CH3COONH4, 15% PEG 4,000; 2.2 Å; one LMS hetero-trimer in the asymmetric unit, (LMS)2 by crystallographic 2-fold symmetry"}, "[4]": {"molecular_target": "T1, GAOR2 (FAD site in M-subunit) (Sulfurisphaera tokodaii, UniProt Q974U9)", "T1 construct": "gene ST0562; same native (LMS)2 complex as P2; M-subunit 278 aa holds FAD; Putative oxidoreductase iron-sulfur subunit (S-subunit)", "T1 sequence (Q974U9 1-278)": "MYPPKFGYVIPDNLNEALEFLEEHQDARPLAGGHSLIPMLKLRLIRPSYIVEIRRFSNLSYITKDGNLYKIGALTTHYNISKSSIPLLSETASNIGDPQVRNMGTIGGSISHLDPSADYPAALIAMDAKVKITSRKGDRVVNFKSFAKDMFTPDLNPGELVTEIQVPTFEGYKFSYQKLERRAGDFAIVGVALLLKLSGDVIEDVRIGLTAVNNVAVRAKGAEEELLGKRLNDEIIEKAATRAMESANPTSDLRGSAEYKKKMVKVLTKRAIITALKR", "T1 sequence (Q96Y29 1-706 partner)": "B2 chain", "T1 sequence (Q974V0 1-168 partner)": "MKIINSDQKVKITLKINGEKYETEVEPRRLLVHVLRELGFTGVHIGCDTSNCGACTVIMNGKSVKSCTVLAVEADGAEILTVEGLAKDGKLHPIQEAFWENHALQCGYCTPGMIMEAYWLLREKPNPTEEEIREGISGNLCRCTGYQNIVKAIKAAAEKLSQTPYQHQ", "test": "X-ray crystal structure, […] Å", "format": "binding", "conditions": "bound in M-subunit; co-purified with native enzyme; crystals at pH 4.5"}, "purified protein [5]": {"substrate": "O=C[C@H](O)CO", "test": "purified protein", "conditions": "0.1 mM DCPIP as electron acceptor, 50 mM MOPS-NaOH pH 7.0, 70°C"}, "purified protein [6]": {"substrate": "O=CCc1c[nH]c2ccccc12", "test": "purified protein", "format": "biochemical, Sulfurisphaera tokodaii", "conditions": "2 mM MV as electron acceptor, 50 mM MOPS-NaOH pH 7.0, 80°C"}, "purified protein [7]": {"substrate": "O=CC(O)COP(=O)(O)O", "test": "purified protein", "format": "biochemical, Sulfurisphaera tokodaii", "conditions": "2 mM MV as electron acceptor, 50 mM MOPS-NaOH pH 7.0, 80°C"}, "purified protein [8]": {"substrate": "CC=O", "test": "purified protein", "format": "biochemical, Sulfurisphaera tokodaii", "conditions": "2 mM MV as electron acceptor, 50 mM MOPS-NaOH pH 7.0, 80°C"}, "[9]": {"molecular_target": "the molecule itself", "test": "crystal structure; GAOR2 purified from S. tokodaii, 8 mg/mL, sitting drop at 25°C, 0.1 M Na-acetate pH 4.5, 0.2 M CH3COONH4, 15% PEG 4,000; 2.2 Å; one LMS hetero-trimer in the asymmetric unit, (LMS)2 by crystallographic 2-fold symmetry"}}}
{"molecule": "LMS hetero-trimer unit of GAOR1 (STK17810/STK17830/STK17820) (complex)", "values": [{"measurement": "stoichiometry N", "setting": "[1]", "result": 4}]}
{"molecule": "LMS hetero-trimer unit of GAOR2 (STK23390/STK05620/STK05610) (complex)", "values": [{"measurement": "stoichiometry N", "setting": "[2]", "result": 2}, {"measurement": "stoichiometry N", "setting": "[3]", "result": 2}]}
{"molecule": "Cc1cc2nc3c(=O)[nH]c(=O)nc-3n(C[C@H](O)[C@H](O)[C@H](O)COP(=O)(O)OP(=O)(O)OC[C@H]3O[C@@H](n4cnc5c(N)ncnc54)[C@H](O)[C@@H]3O)c2cc1C", "note": "[FAD]", "values": [{"measurement": "X-ray crystal structure, 2.2 Å", "setting": "[4]", "result": "one Mo-PCD (L-subunit), one FAD (M-subunit), two [2Fe-2S] clusters"}]}
{"molecule": "B1", "values": [{"measurement": "Km", "setting": "purified protein [5]; enzyme about 70% pure", "result": "11 ± 0", "unit": "µM"}, {"measurement": "kcat", "setting": "purified protein [5]; enzyme about 70% pure", "result": "3.58 ± 0.11", "unit": "s⁻¹"}, {"measurement": "Km", "setting": "purified protein [6]; enzyme about 70% pure", "result": "370 ± 390", "unit": "µM"}, {"measurement": "kcat", "setting": "purified protein [6]; enzyme about 70% pure", "result": "3.58 ± 2.49", "unit": "s⁻¹"}, {"measurement": "Km", "setting": "purified protein [7]; enzyme about 70% pure", "result": "3.5 ± 1.1", "unit": "µM"}, {"measurement": "kcat", "setting": "purified protein [7]; enzyme about 70% pure", "result": "0.43 ± 0.03", "unit": "s⁻¹"}]}
{"molecule": "B2", "values": [{"measurement": "Km", "setting": "purified protein [5]", "result": "30 ± 9", "unit": "µM"}, {"measurement": "kcat", "setting": "purified protein [5]", "result": "50.5 ± 0.05", "unit": "s⁻¹"}, {"measurement": "Km", "setting": "purified protein [6]", "result": "92 ± 17", "unit": "µM"}, {"measurement": "kcat", "setting": "purified protein [6]", "result": "2.77 ± 0.22", "unit": "s⁻¹"}, {"measurement": "Km", "setting": "purified protein [7]", "result": "85 ± 5", "unit": "µM"}, {"measurement": "kcat", "setting": "purified protein [7]", "result": "0.65 ± 0.01", "unit": "s⁻¹"}, {"measurement": "Km", "setting": "purified protein [8]", "result": "1330 ± 20", "unit": "µM"}, {"measurement": "kcat", "setting": "purified protein [8]", "result": "3.38 ± 0.02", "unit": "s⁻¹"}, {"measurement": "stoichiometry N", "setting": "[9]", "result": 2}]}
